T1: recombinant human IL2RB-huFc (human) (UniProt P14784)
T1 sequence (chain, minimally biotinylated): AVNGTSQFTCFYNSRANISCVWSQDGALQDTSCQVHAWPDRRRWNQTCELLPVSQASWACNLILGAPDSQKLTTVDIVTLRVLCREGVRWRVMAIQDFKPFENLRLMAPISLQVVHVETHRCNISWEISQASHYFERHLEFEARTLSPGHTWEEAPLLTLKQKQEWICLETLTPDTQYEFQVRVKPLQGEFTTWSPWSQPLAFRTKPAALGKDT

T2: Recombinant CD25 protein (IL-2R alpha chain) (human, UniProt P01589 22-240)
T2 construct: IL-2 receptor alpha chain (CD25, IL2RA), recombinant, R&D Systems cat #223-2A/CF; source: bought: R&D Systems (cat #223-2A/CF)
T2 sequence (looked up): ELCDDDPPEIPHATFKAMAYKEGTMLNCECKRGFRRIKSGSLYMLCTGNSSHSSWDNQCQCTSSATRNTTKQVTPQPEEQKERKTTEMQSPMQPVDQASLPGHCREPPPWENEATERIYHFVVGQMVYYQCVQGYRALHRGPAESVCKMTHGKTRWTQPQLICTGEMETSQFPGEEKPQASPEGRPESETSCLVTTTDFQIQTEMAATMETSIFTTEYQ


What was measured:
[1] = target: T1, recombinant human IL2RB-huFc (human)
[2] = target: T2, Recombinant CD25 protein (IL-2R alpha …); assay: SPR; CD25 amine-coupled (EDC/NHS) to a CM5 chip, about 90 RU, Biacore T100; IL-2 Fc fusions as analytes, 3-fold series from 500 to 6.2 nM in PBS + 0.05% Tween-20, 75 uL/min; steady state RU levels fitted globally to a 4-parameter logistic function to derive EC50; settings: both partners purified

Molecule	pSTAT5 MFI EC50 in CD25hi Foxp3+ Treg cells, human whole blood assay (AVG EC50, n = 3 donors) [1] [nM]	EC50 [2] [nM]
IL-2 mutein V91S (Fc fusion) (from UniProt P60568 21-153)	0.089	–
IL-2 mutein N88D (Fc fusion) (from UniProt P60568 21-153)	0.418	–
IL-2 mutein D20G (Fc fusion) (from UniProt P60568 21-153)	6.24	–
IL-2 mutein H16E (Fc fusion) (from UniProt P60568 21-153)	0.067	–
IL-2 mutein D20A H16R E61Q (Fc fusion) (from UniProt P60568 21-153)	20.7	–
IL-2 mutein V91K D20A M104V (Fc fusion) (from UniProt P60568 21-153)	4.76	–
IL-2 mutein H16E E61Q (Fc fusion) (from UniProt P60568 21-153)	2.34	–
IL-2 mutein H16E M104L (Fc fusion) (from UniProt P60568 21-153)	0.062	–
IL-2 mutein N88K (Fc fusion) (from UniProt P60568 21-153)	23.3	–

The remaining lines, values ahead:

pSTAT5 MFI EC50 in CD25hi Foxp3+ Treg cells, human whole blood assay (AVG EC50, n = 3 donors) [1] [nM]	EC50 [2] [nM]	Molecule
1.21	–	IL-2 mutein D20A (Fc fusion) (from UniProt P60568 21-153)
20.9	–	IL-2 mutein D20W (Fc fusion) (from UniProt P60568 21-153)
1.67	–	IL-2 mutein D20A M104T (Fc fusion) (from UniProt P60568 21-153)
–	157	IL-2 mutein D20A H16R E61Q (Fc fusion) (Fc fusion, human, UniProt P60568 21-153, looked up, human interleukin-2 (IL-2), fused to the Fc of human IgG1 (N297G); H16 is H36 in P60568); Homodimeric Fc fusion, bivalent for IL-2; source: CHO K1, stably integrated, purified from culture media (MabSelect SuRe, desalting, Superdex 200 SEC)) APTSSSTKKTQLQLERLLLALQMILNGINNYKNPKLTRMLTFKFYMPKKATELKHLQCLEQELKPLEEVLNLAQSKNFHLRPRDLISNINVIVLELKGSETTFMCEYADETATIVEFLNRWITFCQSIISTLT
–	6	IL-2 mutein V91K D20A M104V (Fc fusion) (Fc fusion, human, UniProt P60568 21-153, looked up, human interleukin-2 (IL-2), fused to the Fc of human IgG1 (N297G); H16 is H36 in P60568); Homodimeric Fc fusion, bivalent for IL-2; source: CHO K1, stably integrated, purified from culture media (MabSelect SuRe, desalting, Superdex 200 SEC)) APTSSSTKKTQLQLEHLLLALQMILNGINNYKNPKLTRMLTFKFYMPKKATELKHLQCLEEELKPLEEVLNLAQSKNFHLRPRDLISNINKIVLELKGSETTFVCEYADETATIVEFLNRWITFCQSIISTLT
